Measured values reported in paper PMC11559006, “Rab6a enables BICD2/dynein-mediated trafficking of human papillomavirus from the trans-Golgi network during virus entry” (mBio, 2024).
Ends that are not written are not given here.

Target: T1, HA-tagged constitutively active (CA) Rab6a mutant (Q72L) (UniProt P20340 2-208, Q72L)
T1 construct: Rab6a, amplified from EGFP-Rab6AQ72L (Addgene #49483); the forward primer puts ATG and the HA tag before the codons S-T-G-G (residue 2 onward), the reverse primer ends at the stop codon after ...GGCSC; The vector is called pCMV-FLAG; also called HA-tagged CA Rab6a; GTP-Rab6a; source: HEK293TT, transfected, purified (anti-HA agarose, eluted with HA peptide); not shown: HA, N-terminal, kept
Test: pull-down; 5 µg biotinylated peptide incubated with purified protein (~20 nM FLAG-BICD2 or HA-tagged CA or DN Rab6a) in HN buffer (50 mM HEPES, 150 mM NaCl) with 0.1% Triton, 1 mM DTT, 2 h at 4°C; streptavidin magnetic beads; western blot for HA or FLAG
Conditions: both partners purified

B1: biotinylated HPV16 L2 peptide, amino acids 434–461 (peptide)
peptide: SPQYTIIADAGDFYLHPSYYMLRKRRKR
modifications: also: further groups not given here
notes: HPV16 minor capsid protein L2, amino acids 434-461 of full-length HPV16 L2; also called L2 C; peptide 434–461; source: synthetic peptide, bought: GenScript or Promega
Question: Does B1 bind?
Answer: Result: binds
